Test results reported in the supplement of paper PMC9170038.

Test system: MS2 coat protein
Test: apparent KD of MS2 coat protein; designed switch direction (-1 OFF switch, 1 ON switch): -1; higher = weaker reporter binding
In short: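 Each step of the titration lasted 0.8–1.5 h at the lowest concentration and 10–20 min at the highest. The protein, SNAP-549-labelled MS2 coat protein, went from 0.7 or 1.5 nM doubling to 3 µM over RNA switches transcribed on Illumina chips by stalled E. coli RNA polymerase. Normalised cluster fluorescence was curve-fitted, and the per-design median over clusters is given as apparent KD.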

[1] = Eterna round: R95, input ligand: microRNA oligo, concentration not stated
[2] = input ligand: microRNA oligo, concentration not stated
[3] = Eterna round: R95, input ligand: FMN 200 uM
[4] = Eterna round: R95, input ligand: none

Row | Sequence | apparent KD of MS2 coat protein (input ligand: FMN 200 uM) [nM] | apparent KD of MS2 coat protein (input ligand: none) [nM] | apparent KD of MS2 coat protein [1] [nM] | further results
1 | CGCUGUUGAGGAUAUGGGCGUGGUUACAUGAGGAUCACCCAUGUGGUGUCGCGCGUGGGUCCAGAAGGCGGCGGUG [-31.8, -28.5 kcal, 16% A] (Eterna round: R97, puzzle: Exclusion 5) | 33.5 | 17.5 |  | 
2 | GAUCAACAUGAGGAUCACCCAUGUGAGGAUAUAGACCUAAGGCGCAAGCUAUGGGACUCUAGAAGGCGCGGAAU [Eternabot (L2) Solution 93] (Eterna round: R97, puzzle: Exclusion 1) | 40 | 36.6 |  | 
3 | AGAUCACAUGAGGAUCACCCAUGUGAGGAUAUAGAUUCAAGAGCUUCGGCUCUAAAGUCUAGAAGGCACUAUGA [EX1 #47] (Eterna round: R97, puzzle: Exclusion 1) | 29.1 | 25.4 |  | 
4 | GAGAUGUGAGGAUAUCUAGACCGCGAAAGAGCCGCGGUCCGAGAGAAGGCACAUGAGGAUCACCCAUGUGAUGA [Tiesri] (puzzle: Exclusion 4) |  |  | 39.4 | 
5 | UUUUAACAUGAGGAUCACCCAUGUGAGGAUAUCGAAAUUUAUAUUAAUAUUUAUUAUACGAGAAGGCACAUUUU [JMF 62] (puzzle: Exclusion 1) |  |  | 77.5 | 
6 | UCCAUGUCAGGAUAUCCUAGCGCAAAGUUGCCCGCGCUGCUGGAGAAGGGACAUGAGGAUCACCCAUGUCUACA [EX4 C.10] (Eterna round: R97, puzzle: Exclusion 4) | 76.8 | 23.2 |  | 
7 | CUGUUUUUCGCAGGAUAUGCUCCUCCUUUAUUUGCAGAAGGGCGUUAAACAUGAGGAUCACCCAUGUAUGGUAAUGACAUUUUC [JR_ExcNG1_Sub063] (Eterna round: R96, puzzle: Exclusion NG 1) | 135 | 29.6 |  | apparent KD of MS2 coat protein [2]: 20.8 nM
8 | CUCGGACAUGAGGAUCACCCAUGUGAGGAUAUGGCGCGAUCGUCGAAAGACGAUAGCGCCAGAAGGCACAAAUG [LRO-Excl1-26] (puzzle: Exclusion 1) |  |  | 52 | 
9 | AGACUUAUAGGAUAUACAUGAGGAUCACCCAUGUCGCCAGGCGGUAGCAGAGUCUUUUGUAGAAGGAUGACAAC [Eternabot (Original) Solution 35] (Eterna round: R97, puzzle: Exclusion 3) | 20.6 | 21.2 |  | 
10 | CCCAGGGCAGGAUAUAGAGGGCUAAACAUGAGGAUCACCCAUGUGACCUCGGAACAGUUGCUAGAAGGGCCAGAUU [Maedonxe] (puzzle: Exclusion 5) |  |  | 17.7 | apparent KD of MS2 coat protein [3]: 29.8 nM; apparent KD of MS2 coat protein [4]: 22 nM
11 | AAACGGGUGUCCUCGUUUUCAACAUGAGGAUCACCCAUGUUCGAGGAUAUCCAAUAAGCUCUUCAGGAGAAGGCGAACAUAAAA [Anenence] (Eterna round: R96, puzzle: Exclusion NG 3) | 20.1 | 15.7 |  | apparent KD of MS2 coat protein [2]: 13.3 nM
12 | AGCUGUGGCCGAGGAUAUCUACUAAUCCAAACCGAAAUAUAAUCGGACAUGAGGAUCACCCAUGUAGAGAAGGCGGUCUCAGCA [Eli eng2 - 076] (Eterna round: R96, puzzle: Exclusion NG 2) |  |  |  | apparent KD of MS2 coat protein [2]: 199 nM
13 | GCCAGUGCAGGAUAUCUAUAACCCUACAUGAGGAUCACCCAUGUCCAGCGAAAGCUGGAGGGAGAAGGGCACUGGC [Fiskers Ex 5 - 27] (puzzle: Exclusion 5) |  |  | 17.6 | apparent KD of MS2 coat protein [3]: 15.5 nM; apparent KD of MS2 coat protein [4]: 21.5 nM
14 | CAUACAGUAGUCAGGAUAUUGGAAGAGACACGGAACGAGAAGGGACAUGAGGAUCACCCAUGUAUACUGUAAAG [EX-4 Malc #4] (puzzle: Brourd's mod of Exclusion 4) |  |  | 23.8 | 
15 | AAGAAGUGAGGAUAUGGCCGGGUCCCUGGGUUUGGACCCGGCCAGAAGGCACAUGAGGAUCACCCAUGUAAGAA [Excls4-X] (puzzle: Exclusion 4) |  |  | 21.1 | 
16 | AUUAUAUAGUUAGGAUAUUGAUUAUUAUUUUAACAUGAGGAUCACCCAUGUAGCCUUAUGUAUAACAAGAAGGAACAUUUAUUA [Title] (Eterna round: R96, puzzle: Exclusion NG 2) |  |  |  | apparent KD of MS2 coat protein [2]: 97.9 nM
17 | AAUUAGUCAGGAUAUACAUGAGGAUCACCCAUGUAAACUUUUAGUUUAAUUUGAAUGUGUAGAAGGGACAUUUA [Ex3 #47] (Eterna round: R97, puzzle: Exclusion 3) | 18.9 | 22.2 |  | 
18 | CGUCAGUGAGGAUAUGGUUUCGUGUACAUGAGGAUCACCCAUGUUUCUUGGGACUAAUUACUAGAAGGCACUGACG [JR_Ex5_Sub033] (Eterna round: R97, puzzle: Exclusion 5) | 21.2 | 14 |  | 
19 | AAACCGCAAGGAUAUACUUGCGGUGGUGUUCGAAACUUUCUACUUGAGGAUCACCCAAGUAGAAGGUGCGGUAA [jl-ex2.4.71 ViennaUCT mod] (Eterna round: R97, puzzle: Exclusion 2) | 13.2 | 12.9 |  | 

Row | Sequence | apparent KD of MS2 coat protein (input ligand: FMN 200 uM) [nM] | apparent KD of MS2 coat protein (input ligand: none) [nM] | apparent KD of MS2 coat protein [1] [nM] | further results
20 | AAGAAUUUGCAGGAUAUCUACCACGAUAGGGAUAGAGAAGGGUAAACAUGAGGAUCACCCAUGUAGUAGGUCCG [Eternabot (L2) Solution 91] (Eterna round: R97, puzzle: Exclusion 6) | 61.3 | 115 |  | 
21 | GGUGCGUAUGUGAGGAUAUGCUGGUCCUUGGAUCAGCAGAAGGCACAUGAGGAUCACCCAUGUGGUGUCGUACA [salish99_Bmod_Ex4_014] (puzzle: Brourd's mod of Exclusion 4) |  |  | 255 | 
22 | GGCUAGUCAGGAUAUACGAACAUGUCAAAAGACGUGAAGGGACAUGAGGAUCACCCAUGUAGAAGGGACUAGCC [salish99_ex2_r3_004] (puzzle: Exclusion 2) |  |  | 21.8 | 
23 | CGCCUCAGAGGAUAUACUACGGUUUCCUCAUGAUGCGGCCAACAUGAGGAUCACCCAUGUAGAAGGCUGAGAAA [EX2 A.5] (Eterna round: R97, puzzle: Exclusion 2) | 17.3 | 52.2 |  | 
24 | GCACGGAUUGUAGGAUAUCUGUGCGAUUAGCUCAGAGAAGGACACAUGAGGAUCACCCAUGUUACCUCAAUUAGCCUUCCGUGC [Eli exng1 - 030] (Eterna round: R96, puzzle: Exclusion NG 1) | 21.7 | 20 |  | apparent KD of MS2 coat protein [2]: 14.9 nM
25 | UUUGUACAUGAGGAUCACCCAUGUUAGGAUAUCUCGCCGUCGGCUUGCCGACGGUAUUAGAGAAGGGACAAGGG [JL Tixe mod 8] (puzzle: Exclusion 1) |  |  | 94.2 | 
26 | AAAAGGCUAGGAUAUACAUGAGGAUCACCCAUGUGAGGGCACGGCCGGCGCGGGCCCGGUAGAAGGAGUCAAAA [Exc;s3-IX] (puzzle: Exclusion 3) |  |  | 13.4 | 
27 | GAAAAGGUAGGAUAUACGAGAAGAAAGGGUAGAGAAGAAACACAUGAGGAUCACCCAUGUAGAAGGACCAAAAG [salish99_ex2_r3_099] (puzzle: Exclusion 2) |  |  | 29.9 | apparent KD of MS2 coat protein [3]: 66.7 nM; apparent KD of MS2 coat protein [4]: 29.9 nM
28 | CCUCUACAUGAGGAUCACCCAUGUGAGGAUAUCUCGGAGCAACCACUUAAGGCGCUCCAGAGAAGGCACGUGUA [Erralaqu] (puzzle: Exclusion 1) |  |  | 19.5 | 
29 | UAUUGCAAGUGAGGAUAUGACAUGAGGAUCACCCAUGUAAAGGGAGUUGGCUAUAUAGCAAGAUAUCAGAAGGCACAACUGUAU [JR_ExcNG2_Sub005] (Eterna round: R96, puzzle: Exclusion NG 2) | 76.7 | 64.3 |  | apparent KD of MS2 coat protein [2]: 25.9 nM
30 | AAUAAGGGAGGAUAUACAUUAAAUCCUAUUUUCUUUUUGUUACAUGAGGAUCACCCAUGUAGAAGGCCCAAUAA [lam1] (Eterna round: R97, puzzle: Exclusion 2) | 54.5 | 23 |  | 
31 | UCAUGUCCAGAGGAUAUGUAGCGGAUAAACGCAACAGAAGGCUGGACAUGAGGAUCACCCAUGUGUGCCUUCUA [Exclusion 6 Mod3 of JL of Mod of Letion by ViennaUCT] (Eterna round: R97, puzzle: Exclusion 6) | 81.3 | 227 |  | 
32 | CACAUUACAAAGGAUAUCUGACCAUGCCCUGGCAGAGAAGGUUGGACAUGAGGAUCACCCAUGUGUAUCCAAGU [Eternabot (Original) Solution 6] (Eterna round: R97, puzzle: Exclusion 6) | 37.7 | 26.8 |  | 
33 | UACAUGAGGAUCACCCAUGUUUUGUCGUGUAUGGUAUUUAUCUAGGAUAUCAAUGUAUGUAUUUAUGAGAAGGAGAAUAUUAAU [JMF's solution 43] (Eterna round: R96, puzzle: Exclusion NG 3) | 47.2 | 40.9 |  | apparent KD of MS2 coat protein [2]: 27.4 nM
34 | CUCUGACAUGAGGAUCACCCAUGUGAGGAUAUGAUGCAGCAGUGGUCUACGCUGUGCAUCAGAAGGCACAUGUG (puzzle: Exclusion 1) |  |  | 124 | 
35 | UCUCGAUGGCAAGGAUAUCCUACAUUGUUCUGGCCCGGGCAUGCUACAUGAGGAUCACCCAUGUGGGAGAAGGUGCGCCACUGC [Design 26] (Eterna round: R96, puzzle: Exclusion NG 2) | 118 | 93.3 |  | apparent KD of MS2 coat protein [2]: 55 nM
36 | CUGAGCAGACGGAGAUCCAACAUGAGGAUCACCCAUGUCUCAAAAGCUUUUUGCUUGUCUUAUUCUCCUCUGUUCUC [Bieda] (puzzle: Sensor v3, turn-off variant 1) |  |  | 35.5 | apparent KD of MS2 coat protein [3]: 13.5 nM; apparent KD of MS2 coat protein [4]: 11.1 nM
37 | UCAAGUAUGUAGGAUAUCGAUGUCUUCGGACAUCGAGAAGGACGUACAUGAGGAUCACCCAUGUAACUUGCAUG [Exclusion 6 - B - 10:a] (puzzle: Exclusion 6) |  |  | 55.2 | 
